Measurements taken from the supplement of paper PMC10567573.

B1: DLC1 (parent)
chain: KRSWEEHVTHWMGQPFNSDDRNTA
B2: ARL6IP1 (parent)
chain: YLDPSVLSGVSCFVMFLCLADYLV

Variants of: B1
Experiment: protein stability index of a GFP-peptide fusion (GPS, HEK-293T) (PSI 1-6); higher = more stable
Conditions: c terminus: a fixed tail appended
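Note: lentivirally expressed fusions sorted by FACS into six bins by GFP to DsRed ratio, PSI derived from sequencing read proportions per bin multiplied by bin number.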

Protein stability index: each site, then its substitutions
M12: A 2.44 | C 2.97 | D 2.7 | E 2.32 | F 2.94 | G 2.63 | H 2.94 | I 2.53 | K 2.98 | L 2.94 | N 2.79 | P 3.67 | Q 2.78 | R 2.49 | S 2.57 | T 3.34 | V 2.73 | W 1.94 | Y 3.21
G13: A 2.53 | C 2.1 | D 2.19 | E 2.61 | F 1.82 | H 2.56 | I 2.25 | K 2.13 | L 2.73 | M 2.44 | N 2.14 | P 2.88 | Q 2.44 | R 2.23 | S 2.63 | T 2.18 | V 3.04 | W 1.95 | Y 2.08
Q14: A 3.23 | C 3.01 | D 2.69 | E 1.71 | F 2.65 | G 2.29 | H 2.36 | I 2.44 | K 2.82 | L 2.64 | M 2.34 | N 2.75 | P 2.84 | R 3.47 | S 2.37 | T 2.31 | V 3.15 | W 2.03 | Y 2.6
P15: A 2.95 | C 2.35 | D 1.63 | E 3.45 | F 2.78 | G 2.43 | H 2.66 | I 1.56 | K 2.85 | L 3.4 | M 2.17 | N 2.48 | Q 2.1 | R 2.41 | S 2.3 | T 2.29 | V 2.27 | W 2.92 | Y 2.79
F16: A 2.54 | C 2.66 | D 2.59 | E 3.08 | G 3.14 | H 2.77 | I 2.63 | K 2.97 | L 3.55 | M 2.94 | N 3.62 | P 2.68 | Q 2.41 | R 2.27 | S 3.07 | T 2.37 | V 3.34 | W 2.35 | Y 2.69
N17: A 2.64 | C 2.23 | D 3.03 | E 2.52 | F 2.77 | G 2.44 | H 2.73 | I 2.38 | K 2.1 | L 2.44 | M 2.15 | P 2.73 | Q 3.12 | R 1.64 | S 2.63 | T 3.4 | V 2.26 | W 2.77 | Y 2.36
S18: A 3.48 | C 2.34 | D 3.1 | E 2.97 | F 2.27 | G 2.76 | H 2.66 | I 2.61 | K 3.12 | L 2.03 | M 2.92 | P 3.11 | Q 3.02 | R 2.1 | T 3.21 | V 2.31 | W 2.01 | Y 2.26
D19: A 2.67 | E 2.76 | F 1.85 | G 2.25 | H 2.29 | I 3.12 | K 2.61 | L 2.12 | M 2.88 | N 2.69 | P 2.73 | Q 2.65 | R 2.54 | S 2.6 | T 2.4 | V 1.97 | W 2.64 | Y 1.43
D20: A 3.41 | C 2.19 | E 2.87 | F 2.29 | G 2.43 | H 2.48 | I 2.54 | K 2.51 | L 2.48 | M 1.91 | N 2.59 | P 2.76 | Q 3.05 | R 2.66 | S 1.91 | T 2.75 | V 2.02 | W 1.59 | Y 1.77
R21: A 2.64 | C 2.85 | D 2.89 | E 2.99 | F 1.95 | G 3.17 | H 2.47 | I 2.61 | K 3.32 | L 3.36 | M 2.27 | N 3.91 | P 2.6 | Q 3.07 | S 2.9 | T 3.08 | V 3.31 | W 2.92 | Y 2.55
N22: A 1.81 | C 1.94 | D 2.59 | E 2.56 | F 2.04 | G 2.81 | H 2.04 | I 2.12 | K 3.02 | L 2.06 | M 2.28 | P 2.73 | Q 2.67 | R 2.53 | S 2.74 | T 2.29 | V 2.49 | W 1.7 | Y 2.09
T23: A 2.22 | C 3.51 | D 3.26 | E 2.73 | F 2.13 | G 2.69 | H 2.23 | I 2.35 | K 2.74 | L 2.08 | M 1.73 | N 2.74 | P 2.46 | Q 3.27 | R 2.65 | S 2.26 | V 2.13 | W 1.79 | Y 2.16
A24: C 2.32 | D 2.82 | E 3.59 | F 2.37 | G 2.97 | H 2.9 | I 2.81 | K 3.54 | L 2.89 | M 2.09 | N 2.23 | P 2.92 | Q 3.18 | R 2.86 | S 2.67 | T 2.43 | V 3.28 | W 2.6 | Y 1.72

Variants of: B2
Experiment: as above
Conditions: c terminus: a fixed tail appended

Protein stability index, by site and new letter:
Y1: A 1.59 | C 3.1 | D 2.61 | H 3.89 | I 2.63 | M 3.37 | N 4.11 | R 2.81 | V 2.9
L2: A 2.29 | C 2.99 | D 3.95 | E 3.04 | F 3 | H 2.67 | I 1.63 | K 3.31 | N 2.5 | P 2.76 | Q 2.09 | R 2.5 | T 3.75 | Y 2.35
D3: A 5.08 | E 1.94 | H 1.69 | I 2.83 | N 3.7 | P 3.06 | Q 3.57 | R 3.64 | S 2.72 | T 2.59 | V 2.91 | Y 2.54
P4: C 3.21 | D 3.12 | G 3.42 | I 2.66 | K 2.63 | L 2.76 | M 3.45 | N 2.9 | V 3.33
S5: D 3.07 | G 3.63 | H 3.5 | I 3.61 | K 3.47 | L 3.09 | M 3.03 | N 2.26 | P 3.19 | R 3.56
V6: A 1.44 | C 3.38 | D 2.36 | I 3.23 | K 2.51 | N 3.08 | Q 2.64 | R 2.76 | S 2.79 | T 2.39 | Y 2.66
L7: A 3.11 | C 1.88 | H 3.82 | M 2.98 | N 2.74 | P 2.4 | Q 4 | S 3.62 | T 2.8 | V 3.69 | Y 2.89
S8: C 3.59 | F 3.22 | G 3.79 | H 3.58 | I 2.96 | L 3.77 | M 2.26 | N 3.35 | R 2.95 | T 2.79 | V 3.82
G9: A 3.74 | E 2.77
